Test results as given in PMC12691643.

B1: Nckap1l (Hem1), endogenous in murine DC2.4 cells (natural protein)
chain: MSLTSAYQLKLAEKLTILNDRGQGVLIRMYNIKKTCSDSKSKPPFLLEKSMESCLKYINKKFPNIDVRNSTQHLGPVHREKAEIIRFLTNYYQSFVDVMEFRDHVYELLNTIDACQCHFDINLNFDFTRSYLDLIVTYTSVILLLSRIEDRRILIGMYNCAHEMLHGHSDPSFARLGQMVLEYDHPLKKLTEEFGPHTKAVSGALLSLHFLFVRRNQGAEQWRSAQLLSLISSPPAMINPANSDTMACEYLSVEVMERWIIIGFLLCHGCLNSNSQCQKLWKLCLEGSLYITLIREDVLQVHKVTEDLFSSLKGYSKRVADIKESKEHAITNSGQFHCQRRQFLRTAVKELETVLNDEPGLLGPKALFAFMALSFIRDEVTWLVRHTENVTKTKTPEDYADSSIAELLFLLEEIRALVRRHIKVIQQYHLQYLARFDVLVLSDIIQNLSVCPEEESVIMSSFVSILSSLNLKQVDNEEKFDFSGLRLDWFRLQAYTSVSKAPLHLHENPDLAKVMNLIIFHSQMLDSVEKMLVETSDLSTFCFHLRTFEKMFATTLEEPTMLRYTIAFPLICAHFVHCVHEMCPEEYPHLKNHGLHHCNSFLEDLAKQTSNCVLEICAEQRNLNEQLLPKHCATTISKAKNKKSMKQRQAPRKGEPERDKPGAESHRKNRSLVTNMDKLHLNLTELALAMNHVHSFSVFEHTIFPSEYLSSHLEARLNRAIVTLAGYNATTQEILRPSELLAGVKAYISFIQSLAQFLGADASRIVRNALLQQTQPLDSSGEQTVTTLYTNWYLESLLRQASSGAIVLSPAMQAFISLPRDGEQNFSAEEFSDISEMRALAEILGPYGMKFLSENLMWHVTSQIVELKKLVVENMDILVQIRSNFSKPELMASLLPQLTGAENVLKRMTIIGVILSFRAMAQEGLQEVFSAHCPFLMGPIECLKEFVTPDTDIKVTLSVFELACAAGVSCDIDPALVAAIANLKADNSSPEEEYKVACLLLIFLAVSLPLLATDPSSFFSIEKDGYNNNIHCLTKAIIQVSAALFTLYNKNIETHLKEFLVVASVSLLQLGQETDKLKTRNRESISLLMRLVVEESPFLTLDMLESCFPYVLLRNAYREVSRAFYLNRLPASSH
B2: Abi3, endogenous in murine DC2.4 cells (natural protein)
chain: MAELQQLQQLQEFDIPTGREALRGNHSALLRVANYCEDNYLQATDKRKALEETMAFTTQALASVAYQVGNLAGHTLRMLDLQGAALRQVEAKMSTLGQMVNMHMEKVARREIGTLATVVRLPSNQKVIPPESLPSLTPYHRKPLNFACLDDIGHGVKDLSTQLSRTGTLSRKSIKAPATPVSATLGRPPRIPEPVQLPAVPDGKLSAASSASSLASAGSAEGASGIPQSKGQVAPATPPPPPVAPVTPPPPPLSAEVFLPPPPLEVSQPPLEAELPLPPPPALEGDELGLLPPPPPGFGPDEPSWVPASYLEKVVTLYPYTRQKDNELSFSEGTVICVTRRYSDGWCEGVSSEGTGFFPGNYVEPSC

Legend:
Assay in all cases: affinity purification with mass spectrometry; HA-tagged TgWIP variants pulled down by the HA tag from lysates of DC2.4 cells infected 4 h at MOI 7; host partners by mass spectrometry; values are negative fold changes in peptide counts of the mutant immunoprecipitations relative to TgWIP^WT
[1] = molecular target: TgWIP^(PRR2 mut), HA-tagged (Toxoplasma gondii)
[2] = molecular target: TgWIP^(PRR3 mut), HA-tagged (Toxoplasma gondii)
[3] = molecular target: TgWIP^(WIRS mut), HA-tagged (Toxoplasma gondii)
[4] = molecular target: TgWIP^Y150A/Y199A, HA-tagged (Toxoplasma gondii)

Binder	negative fold change in peptide counts relative to TgWIP^WT [1] [fold]	negative fold change in peptide counts relative to TgWIP^WT [2] [fold]	negative fold change in peptide counts relative to TgWIP^WT [3] [fold]	negative fold change in peptide counts relative to TgWIP^WT [4] [fold]
B1	3	4	2	1
B2	3	7	1	1
